Results reported in the RNAGym collection of RNA variant scans (doi:10.7554/elife.80360).

B1: HDV Ribozyme (parent)
chain: GGCCGGCAUGGUCCCAGCCUCCUCGCUGGCGCCGGCUGGGCAACAUUCCGAGGGGACCGUCCCCUCGGUAAUGGCGAAUGGGACCCA

Variants of: B1
Assay: self-cleavage, relative activity (ratio to wild type); higher = more cleavage; co-transcriptional

First: G17C C32U
Second: A16U A87G
The self-cleavage of the first is lower: 0 for the first, 0.968 for the second.

Compared with G17C C22U, G17C G25U is higher in self-cleavage: 0.0639 for the first, 0.101 for the second.

Going from A16U G34C to A16U G34A, the self-cleavage falls from 0.369 to 0.166.

Going from G17A U47G to G17C A77C, the self-cleavage falls from 0.657 to 0.277.

Going from G17C C86G to G17C C86A, the self-cleavage rises from 0.131 to 0.365.

Going from A16U G39A to A16U G39U, the self-cleavage rises from 0.32 to 0.403.

Compared with G17A A83C, A16U C86G is higher in self-cleavage: 0.665 for the first, 0.853 for the second.

Compared with G17A A77C, G17A A77G is higher in self-cleavage: 0.0978 for the first, 0.295 for the second.

Going from A16U U20C to A16U G55U, the self-cleavage rises from 0.277 to 1.09.

First: A16U G55A
Second: A16U G53C
The self-cleavage of the first is lower: 0.784 for the first, 1.01 for the second.

Going from A16U G80U to A16U G80C, the self-cleavage falls from 0.41 to 0.145.

Compared with G17A U72C, G17A U72G is higher in self-cleavage: 0.141 for the first, 0.378 for the second.

Compared with A16U C66U, G17C C64U is lower in self-cleavage: 1.05 for the first, 0.0475 for the second.

Compared with G17C C64A, G17A G28U is lower in self-cleavage: 0.314 for the first, 0.122 for the second.

Compared with G17A G40C, G17A C75G is lower in self-cleavage: 0.113 for the first, 0.0773 for the second.

First: G17A G80C
Second: G17A C63A
The self-cleavage of the first is lower: 0.345 for the first, 0.611 for the second.

Going from G17A C63G to G17A C49A, the self-cleavage rises from 0.633 to 0.727.

Going from G17A C58A to A16U C32U, the self-cleavage falls from 0.746 to 0.727.

Going from A16U C32A to G17C C26A, the self-cleavage rises from 0.177 to 0.369.

Going from G17C C26U to G17C G50U, the self-cleavage falls from 0.359 to 0.332.

First: G17C G50A
Second: A16U U79G
The self-cleavage of the first is lower: 0.148 for the first, 1.13 for the second.

First: G17A C18U
Second: G17A C18A
The self-cleavage of the first is lower: 0.106 for the first, 0.252 for the second.

Going from G17C C24A to G17C G67U, the self-cleavage rises from 0.0519 to 0.358.

Compared with G17C G67A, G17A C64A is higher in self-cleavage: 0.249 for the first, 0.645 for the second.

Going from G17A C64U to G17A G73U, the self-cleavage falls from 0.722 to 0.188.

Going from A16U U23C to G17C G29A, the self-cleavage falls from 0.831 to 0.0437.

Going from G17C G29U to G17C G52C, the self-cleavage rises from 0 to 0.19.

Compared with G17A U46G, G17A U46A is higher in self-cleavage: 0.229 for the first, 0.308 for the second.

First: A16U C57U
Second: G17C A51U
The self-cleavage of the first is higher: 0.831 for the first, 0.443 for the second.

Compared with G17C A51G, G17C C62U is higher in self-cleavage: 0.317 for the first, 0.405 for the second.

First: G17A A43U
Second: G17C G81C
The self-cleavage of the first is higher: 0.237 for the first, 0.0898 for the second.

Going from G17C G81A to G17A C21G, the self-cleavage falls from 0.0978 to 0.0415.

Compared with A16U G67A, G17C G28C is lower in self-cleavage: 0.988 for the first, 0.125 for the second.

Going from G17C G28U to G17A A78U, the self-cleavage rises from 0.0707 to 0.242.

Going from G17A A78G to G17C G74U, the self-cleavage falls from 0.262 to 0.0554.

First: G17C C21A
Second: G17C C49G
The self-cleavage of the first is lower: 0.0519 for the first, 0.107 for the second.

Going from G17C C49A to G17C A83C, the self-cleavage falls from 0.467 to 0.244.

First: G17A G55U
Second: G17A C30U
The self-cleavage of the first is lower: 0.762 for the first, 0.986 for the second.

Going from G17C C61G to G17A G39C, the self-cleavage falls from 0.519 to 0.

Compared with G17A C36A, A16U C21U is lower in self-cleavage: 0.138 for the first, 0.122 for the second.

First: A16U C44A
Second: A16U C44U
The self-cleavage of the first is lower: 0.598 for the first, 0.6 for the second.

Compared with A16U U69G, G17A A45C is lower in self-cleavage: 1.16 for the first, 0.415 for the second.

First: A16U U65A
Second: A16U U65C
The self-cleavage of the first is lower: 0.831 for the first, 0.965 for the second.

First: G17C A87U
Second: G17C A87C
The self-cleavage of the first is lower: 0.171 for the first, 0.354 for the second.

First: G17A U60A
Second: G17C C58A
The self-cleavage of the first is higher: 0.787 for the first, 0.388 for the second.

Going from G17C G59C to G17A C86U, the self-cleavage rises from 0.243 to 0.885.

Compared with A16U G35C, G17C C18A is lower in self-cleavage: 0.128 for the first, 0 for the second.

First: G17C A70U
Second: G17A G67C
The self-cleavage of the first is lower: 0.277 for the first, 0.659 for the second.

First: A16U G28A
Second: G17A C66U
The self-cleavage of the first is lower: 0.0475 for the first, 0.607 for the second.

First: G17A U37G
Second: G17A U37C
The self-cleavage of the first is lower: 0.172 for the first, 1.1 for the second.

First: A16U G74U
Second: G17A G81A
The self-cleavage of the first is higher: 0.394 for the first, 0.151 for the second.

First: G17A G54C
Second: G17A A71G
The self-cleavage of the first is lower: 0.458 for the first, 0.675 for the second.

First: G17A A71U
Second: A16U C63A
The self-cleavage of the first is lower: 0.499 for the first, 1.08 for the second.

First: A16U C63U
Second: G17C G35A
The self-cleavage of the first is higher: 1.14 for the first, 0.147 for the second.

Compared with G17C G35U, A16U C22G is higher in self-cleavage: 0.0773 for the first, 0.161 for the second.

First: A16U C22U
Second: A16U G25A
The self-cleavage of the first is higher: 0.612 for the first, 0.0707 for the second.

Compared with A16U G25U, A16U C26A is higher in self-cleavage: 0.166 for the first, 1.05 for the second.

Going from G17C G80A to G17C G80U, the self-cleavage rises from 0.0252 to 0.0588.

First: G17C A45C
Second: G17C A45G
The self-cleavage of the first is lower: 0.0519 for the first, 0.119 for the second.

Going from G17A C57G to G17C C19U, the self-cleavage falls from 0.674 to 0.128.

Compared with A16U G40A, G17A G38U is lower in self-cleavage: 0.928 for the first, 0.1 for the second.

Going from A16U C58G to G17A G59C, the self-cleavage falls from 0.807 to 0.66.

Compared with G17A G59A, G17A C24G is lower in self-cleavage: 0.635 for the first, 0.0791 for the second.

Compared with G17A A87U, A16U G59A is higher in self-cleavage: 0.708 for the first, 0.967 for the second.

Going from G17A U79G to A16U C19A, the self-cleavage falls from 0.388 to 0.285.

First: G17A A51C
Second: G17A A51G
The self-cleavage of the first is lower: 0.755 for the first, 0.782 for the second.

First: A16U C18A
Second: G17A U20G
The self-cleavage of the first is lower: 0.107 for the first, 0.156 for the second.

Compared with G17A U20C, G17A C61A is higher in self-cleavage: 0.268 for the first, 0.594 for the second.

Compared with A16U C30G, A16U C30U is higher in self-cleavage: 0.119 for the first, 0.68 for the second.

Compared with G17A G35C, G17C A56U is higher in self-cleavage: 0.156 for the first, 0.427 for the second.

First: A16U U72A
Second: G17A C44A
The self-cleavage of the first is higher: 0.554 for the first, 0.306 for the second.

Going from G17A C44U to A16U G68U, the self-cleavage rises from 0.231 to 1.18.

Going from G17C C41G to A16U U47G, the self-cleavage rises from 0.0354 to 0.692.

First: A16U C75G
Second: G17C C84U
The self-cleavage of the first is lower: 0.119 for the first, 0.326 for the second.

Going from G17C C84G to A16U C24U, the self-cleavage rises from 0.18 to 0.314.

Going from G17C G73C to G17C G73A, the self-cleavage rises from 0.0875 to 0.156.

Compared with G17C G73U, G17C C57G is higher in self-cleavage: 0.0852 for the first, 0.516 for the second.

Compared with G17A U23G, A16U G76C is higher in self-cleavage: 0.427 for the first, 0.973 for the second.

Going from A16U G76A to G17A G52C, the self-cleavage falls from 0.939 to 0.923.

A16U C48U and A16U C48A are the same in self-cleavage: 1.07 for the first, 1.07 for the second.

Compared with G17C C66A, G17A C85A is higher in self-cleavage: 0.262 for the first, 0.727 for the second.

Compared with A16U U27G, A16U C64U is higher in self-cleavage: 0.665 for the first, 0.866 for the second.

Going from A16U G52C to G17A G25U, the self-cleavage falls from 0.696 to 0.0277.

With G17A U69A the self-cleavage was 0.731.
